The source of these data is the RNAGym collection of RNA variant scans (doi:10.1073/pnas.2313332121).

B1: TPR t1 (parent)
chain: GACCAAUCUGCCCUCAGAGCUCGAGAACAUCUUCGGAUGCAGAGGAGGCAGGCUUCGGUGGCGCGAUAGCGCCAACGUCCUCAACCUCCAAUGCAUCCCACCACAUGAUGAUGCCUGAAGAGCCUUGGUUUUUUG

Variants of B1 are the subject of the series. In words: polymerase ribozyme fitness, log enrichment relative to wild type (log ratio); higher = more active; in vitro selection for triplet polymerase activity. Put shortly: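 Mutant libraries of both subunits of a heterodimeric triplet polymerase ribozyme were PCR-built, transcribed, and selected once in triplicate, with frozen incubation at −7 °C and capture of gel-excised extended constructs on streptavidin beads before RT-PCR. Illumina sequencing of input and output libraries was filtered to genotypes with ≥10 input reads and ≥1 read per output. Fitness is the logarithm of genotype enrichment over wild-type enrichment, using inverse-variance-weighted replicate averages. The logarithm is base 2.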
Turning to GACCAAUCUGCCCUCAGAGCUCGAGAACAUCUUCGGAUUCAGAGGAGGCAGGCUUCGGUGGCGCGAUAGCGCCAACGGCCUCAACCUCCAAUGCAUCCCACCACAUGAUGAUGCCUGAAGAGCCUUGGUUUUUUG [G39U U78G], the “polymerase ribozyme fitness (log ratio)” value was -0.403.

In the case of GACCAAUCUGCCCUCAGAGCUCGAGAACAUCUUCGGAUUCAGAGGAGGCAGGCUUCGGUGGCGCGAUAGCGCCAACGCCCUCAACCUCCAAUGCAUCCCACCACAUGAUGAUGCCUGAAGAGCCUUGGUUUUUUG [G39U U78C], the “polymerase ribozyme fitness (log ratio)” value is -0.554. As for GACCAAUCUGCCCUCAGAGCUCGAGAACAUCUUCGGAUUCAGAGGAGGCAGGCUUCGGUGGCGCGAUAGCGCCAACGUCCUCAACCUCCAAUGCAACCCACCACAUGAUGAUGCAUGAAGAGCCUGGGUUUUUUG [G39U U96A C115A U126G], the figure is -6.69; as for GACCAAUCUGCCCUCAGAGCUCGAGAACAUCUUCGGAUUCAGAGGAGGCAGGCUUCGGUGGCGCGAUAACGCCAACGACCUCAACCUCCAAUGCAUCCCACCACAUGAUGAUGCCUGAACAGCCUUGGUUUUCUG [G39U G69A U78A G120C U133C], -2.17; as for GACCAAUCUGCCCUCAGAGCUCGAGAACAUCUUCGGAUUCAGAGGAGGCAGGCUUCGGUGGCGCGAUAGCGCCAACGUCCUCAACCUCCAAUGCAUCCCACCACAUGAUGAUGCCUGAAGAGCCUUGUUUUUUUG [G39U G128U], -3.06. The figure for GACCAAUCUGCCCUCAGAGCUCGAGAACAUCUUCGGAUUCAGAGGAGGCAGGCUUCGGUGUCGCGAUAGCGCCAACGUCCUCAACCUCCAAUGCAUCCCACCACAUGAUGAUGCCUGAAGAGCCUUGGUUUUUUG [G39U G61U] is 0.39; for GACCAAUCUGCCCUCAGAGCUCGAGAACAUCUUCGGAUUCAGAGGAGGCAGGCUUCGGUGACGCGAUAGCGCCAACGUCCUCAACCUCCAAUGCAUCCCACCACAUGAUGAUGCCUGAAGAGCCUUGGUUUUUUG [G39U G61A] it is -0.103. As for GACCAAUCUGCCCUCAGAGCUCGAGAACAUCUUCGGAUUCAGAGGAGGCAGGCUUCGGUGGCGCGAUAUCGCCAACGUCCUCAACCUCCAAUGCAUCCCACCACAUGAUGAUGCCUGAAGAGCCUUGGUUUUUUG [G39U G69U], the “polymerase ribozyme fitness (log ratio)” value is 0.0399. Consider GACCAAUCUGCCCUCAGAGCUCGAGAACAUCUUCGGAUUCAGAGGAGGCAGGCUUCGGUGGCUCGAUAGCGCCAACGUCCUCAACCUCCAAUGCAUCCCACCACAUGAUGAUACCUGAAGAGCCUUGGUUUUUUG [G39U G63U G113A], for which the “polymerase ribozyme fitness (log ratio)” value was -3.09. On to GACCAAUCUGCCCUCAGAGCUCGAGAACAUCUUCGGAUUCAGAGGAGGCAGGCUACGGUAGCGCGAUAGCGCCAACGUCCUCAACCUCCAAUGCAUCCCACCACAUGAUGAUGCCUGAAGAGCCUUGGUUUUUUG [G39U U55A G60A], for which the “polymerase ribozyme fitness (log ratio)” value is -0.52.

For the variant GACCAAUCUGCCCUCAGAGCUCGAGAACAUCUUCGGAUUCAGAGGAGGCAGGCUUCGGUGGCGCGAUAGCGCCAACGUCCUCAACCUCCAAUGCAUCCCACCACAUGAUGAUGCCUAAAGAGCCUUGGUUUUUUG [G39U G117A], the “polymerase ribozyme fitness (log ratio)” value was -2.1. As for GACCAAUCUGCCCUCAGAGCUCGAGAACAUCUUCGGAUUCAGAGGAGGCAGGCUUCGGUGGCGCGAUAGCGCCAACGGCCUCCACCUCCAGUGCAUCCCACCACAUGAUGAUGCCUGAAGAGCCUUGGAUUUUUG [G39U U78G A83C A91G U129A], the figure is -3.94. Regarding GACCAAUCUGCCCUCAGAGCUCGAGAACAUCUUCGGAUUCAGAGGAGGCAGGCUUCGGUUGCGCGAUAGCGCCAACGUCCUCAACCUCCAAUGCAUCCCACCACAUGAUGAUGCCUGAAGAGCCUUGGGUUUUUG [G39U G60U U129G], the “polymerase ribozyme fitness (log ratio)” value is -2.5.

Turning to GACCAAUCUGCCCUCAGAGCUCGAGAACAUCUUCGGAUUCAGAGGAGGCAGGCUGCGGUGGCGCGAUAGCGCCCCCGUCCUCAACCUCCAAUGCAUCCCACCAUAUGAUGAUCCCUGAAGAGCCUUGGUUUUUUG [G39U U55G A74C A75C C104U G113C], the “polymerase ribozyme fitness (log ratio)” value is -3.51.

Regarding GACCAAUCUGCCCUCAGAGCUCGAGAACAUCUUCGGAUUCAGAGGAGGCAGGCUUCGGUGGCGCGAUAGCGCCAACGCCCUCAACCUCCAAUGCAUCCCACCACAUGAUGAUGCCUGAAGUGCCUUGGUUUUUUG [G39U U78C A121U], the “polymerase ribozyme fitness (log ratio)” value came out at 1.16. Consider GACCAAUCUGCCCUCAGAGCUCGAGAACAUCUUCGGAUUCAGAGGAGGCAGGCGUAGGUGGCGCGAUAGCGCCAACGUCCUCCACCUCUAAUGCAUCCCACCACAUGAUGAUGCCUGAAGAGCCUUGGUUUUUUG [G39U U54G C56A A83C C89U], for which the “polymerase ribozyme fitness (log ratio)” value is -3.7. The figure for GACCAAUCUGCCCUCAGAGCUCGAGAACAUCUUCGGAUUCAGAGGAGGCAGGCUUCGGUCGUGCGAUAGCGCCAACGUCCUCAACCUCCAAUGCAUUCCACCACAUGAUGAUGCCUGAAGAGCCUUGGUUUUUUG [G39U G60C C62U C97U] is -3.98.

Turning to GACCAAUCUGCCCUCAGAGCUCGAGAACAUCUUCGGAUUCAGAGGAGGCAGGCUUCGGUGGCGCGAUAGCCCCAACGUCCUCAACCUCCAAUGCAUCCCACCACAUGAUGAUGCCGGAAGAGCCUUGGUUUUUUG [G39U G71C U116G], the “polymerase ribozyme fitness (log ratio)” value is -3.1. As for GACCAAUCUGCCCUCAGAGCUCGAGAACAUCUUCGGAUUCAGAGGAGGCAGGCUUCGGUGUCGCGAUAGCGCCAACGUCCUCAACCUCCAAUGCAUCCCACCACAUGAUGAUGCCUGAAGCGCCUUGGUUUUUUG [G39U G61U A121C], the figure is 1.22; as for GACCAAUCUGCCCUCAGAGCUCGAGAACAUCUUCGGAUUCAGAGGAGGCAGGCUUCGGUCACGCGAUAGCGCCAACGUCCUCAACCUCCAAUGCAUCCCACCACAUGAUGAUGCCUGUAGAGCCUUGGUUUUUUG [G39U G60C G61A A118U], -1.64; as for GACCAAUCUGCCCUCAGAGCUCGAGAACAUCUUCGGAUUCAGAGGAGGCAGGCUUCGGUGGCUCGAUAGCGCCAACGUCCUCAACCUCCAAUGCAUCCCACCACAUGAUGAUGCCUGAAGUGCCUUGGUUUUUUA [G39U G63U A121U G135A], 0.925.
